Source: the supplement of paper PMC10126150
± gives the standard deviation of the averaged measurements.

Tested on: ATP
Experiment: switch fluorescence ratio, 500 uM ATP over buffer (Cy3 cluster intensity, sum of 5 cycles each) (fold (ratio)); higher = stronger signal-on switching upon ATP binding; sequences stand for … in TCGTCGGCAGCGTCAGATGTGTATAAGAGACAGTTTTTTTTTTTTTTTTTTTTTTTTT…TC
Settings: aptamer strand: ATP DNA aptamer (quencher-CACCTGGGGGAGTATTGCGGAGGAAGG + anchor), 100 nM annealed; ATP concentration: 500 uM
In short: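 Cy3-labelled switching-strand clusters on a modified Illumina MiSeq flow-cell were annealed to 100 nM quencher-labelled ATP aptamer, imaged in selection buffer, then imaged after 15 min with 500 uM ATP at 22 °C. Five buffer/ATP cycles ran, with NaOH stripping and re-annealing between them. The fluorescence ratio is summed target-cycle over summed buffer-cycle Cy3 intensity per cluster, averaged per switch-domain sequence. Clusters outside 100-1000 RFU were excluded.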
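Note: ATP exposure 15 min at 22 °C before imaging.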

| Sequence | switch fluorescence ratio |
| --- | --- |
| GGGGGTAAGT | 1.01 ± 0.02 |
| GGGGGTAATA | 0.999 ± 0.021 |
| GGGGGTAATG | 0.974 ± 0.035 |
| GGGGGTATAC | 1.28 ± 0.11 |
| GGGGGTCATC | 0.971 ± 0.011 |
| GGGGGTCCAG | 0.997 ± 0.022 |
| GGGGGTCCCT | 1.01 ± 0.015 |
| GGGGGTCCGC | 1.022 ± 0.0071 |
| GGGGGTCTGT | 0.972 ± 0.013 |
| GGGGGTGACG | 0.995 ± 0.11 |
| GGGGGTGGGC | 1.03 ± 0.035 |
| GGGGGTGTTT | 0.998 ± 0.037 |
| GGGGGTTACA | 1.005 ± 0.005 |
| GGGGGTTAGG | 1.01 ± 0.037 |
| GGGGGTTAGT | 1.01 ± 0.014 |
| GGGGGTTCCC | 0.9833 ± 0.0017 |
| GGGGGTTCCT | 1 ± 0.032 |
| GGGGGTTCGT | 0.98 ± 0.036 |
| GGGGGTTTAG | 1 ± 0.028 |
| GGGGGTTTGA | 1 ± 0.022 |
| GGGGGTTTGG | 0.991 ± 0.03 |
| GGGGTAAAAG | 1.08 ± 0.2 |
| GGGGTAAACT | 1.01 ± 0.034 |
| GGGGTAAAGC | 1 ± 0.018 |
| GGGGTAACAG | 1.01 ± 0.044 |

| Sequence | switch fluorescence ratio |
| --- | --- |
| GGGGTAAGTG | 0.987 ± 0.04 |
| GGGGTACAGT | 0.9946 ± 0.0091 |
| GGGGTACGCT | 0.99523 ± 0.00067 |
| GGGGTACTGG | 1.01 ± 0.016 |
| GGGGTACTTT | 0.991 ± 0.026 |
| GGGGTAGCCC | 0.9977 ± 0.004 |
| GGGGTAGGAG | 1.03 ± 0.093 |
| GGGGTAGTAG | 0.979 ± 0.013 |
| GGGGTAGTTC | 1.01 ± 0.028 |
| GGGGTATTAT | 1 ± 0.028 |
| GGGGTATTTT | 0.997 ± 0.023 |
| GGGGTCAGTC | 0.9933 ± 0.0099 |
| GGGGTCAGTG | 0.998 ± 0.054 |
| GGGGTCCGTG | 0.993 ± 0.067 |
| GGGGTCCTAG | 0.9959 ± 0.0065 |
| GGGGTCCTGA | 1.01 ± 0.062 |
| GGGGTCGGTA | 0.9893 ± 0.0032 |
| GGGGTCTGCG | 1.03 ± 0.059 |
| GGGGTGAATC | 1.03 ± 0.045 |
| GGGGTGAGGA | 0.981 ± 0.037 |
| GGGGTGATAT | 1.58 ± 0.78 |
| GGGGTGATCG | 0.9842 ± 0.0077 |
| GGGGTGCATG | 0.997 ± 0.054 |
| GGGGTGCCCG | 0.948 ± 0.018 |
| GGGGTGCGGT | 0.998 ± 0.017 |

| Sequence | switch fluorescence ratio |
| --- | --- |
| GGGGTGGAAA | 0.979 ± 0.018 |
| GGGGTGGCTA | 1.02 ± 0.019 |
| GGGGTGGTGT | 1.03 ± 0.027 |
| GGGGTGTACA | 0.969 ± 0.027 |
| GGGGTGTGAA | 1.03 ± 0.059 |
| GGGGTTAAAC | 1.04 ± 0.034 |
| GGGGTTAGAG | 0.991 ± 0.033 |
| GGGGTTATCA | 0.99 ± 0.014 |
| GGGGTTATTG | 0.986 ± 0.038 |
| GGGGTTCGTG | 0.975 ± 0.041 |
| GGGGTTGTGC | 0.971 ± 0.035 |
| GGGGTTTCGG | 1.02 ± 0.087 |
| GGGGTTTCTG | 0.986 ± 0.03 |
| GGGGTTTGG | 1.004 ± 0.0067 |
| GGGGTTTTCG | 1.01 ± 0.029 |
| GGGGTTTTG | 0.953 ± 0.0088 |
| GGGTAAATCG | 0.981 ± 0.068 |
| GGGTAAGCTT | 0.996 ± 0.016 |
| GGGTAAGGGC | 1.01 ± 0.031 |
| GGGTAATGAG | 1 ± 0.022 |
| GGGTAATGTG | 0.982 ± 0.029 |
| GGGTAATTAT | 1.01 ± 0.036 |
| GGGTACAGTT | 1.01 ± 0.018 |
| GGGTACGTGG | 1.005 ± 0.009 |
| GGGTACGTGT | 0.989 ± 0.029 |

| Sequence | switch fluorescence ratio |
| --- | --- |
| GGGTACTCGC | 1.03 ± 0.065 |
| GGGTAGAAGT | 0.988 ± 0.023 |
| GGGTAGATGG | 0.9704 ± 0.0062 |
| GGGTAGCCGG | 1 ± 0.0042 |
| GGGTAGCTAG | 1.04 ± 0.022 |
| GGGTAGCTCT | 1.06 ± 0.076 |
| GGGTAGGCGT | 0.999 ± 0.062 |
| GGGTAGGGAC | 1.01 ± 0.026 |
| GGGTAGGGTA | 0.9864 ± 0.0082 |
| GGGTAGGGTT | 0.9832 ± 0.0077 |
| GGGTAGTTCA | 1.009 ± 0.0069 |
| GGGTAGTTGG | 0.998 ± 0.082 |
| GGGTATAATA | 1.01 ± 0.014 |
| GGGTATAGGG | 1.01 ± 0.037 |
| GGGTATATAG | 1.02 ± 0.036 |
| GGGTATCAG | 0.955 ± 0.03 |
| GGGTATCTCG | 0.9938 ± 0.0063 |
| GGGTATGCAT | 0.973 ± 0.011 |
| GGGTATGGGG | 1.01 ± 0.031 |
| GGGTATGTCC | 0.989 ± 0.026 |
| GGGTATTAGC | 0.982 ± 0.053 |
| GGGTATTGGA | 0.9828 ± 0.0047 |
| GGGTATTGTT | 0.995 ± 0.024 |
| GGGTATTTGG | 0.987 ± 0.042 |
| GGGTCAAGGA | 0.995 ± 0.019 |

| Sequence | switch fluorescence ratio |
| --- | --- |
| GGGTCAATAT | 1.13 ± 0.032 |
| GGGTCAGGGC | 1.06 ± 0.062 |
| GGGTCAGGGG | 1.09 ± 0.077 |
| GGGTCAGTCC | 0.978 ± 0.019 |
| GGGTCAGTGG | 0.976 ± 0.035 |
| GGGTCCATCT | 1 ± 0.013 |
| GGGTCCGAGA | 1.31 ± 0.4 |
| GGGTCGCAGC | 0.998 ± 0.015 |
| GGGTCGTGCT | 1.03 ± 0.022 |
| GGGTCTAGAG | 1.0295 ± 0.00078 |
| GGGTCTAGCG | 1.01 ± 0.0065 |
| GGGTCTATCG | 0.989 ± 0.034 |
| GGGTCTGGGT | 0.984 ± 0.026 |
| GGGTGAAATA | 1.02 ± 0.019 |
| GGGTGAAGAT | 1.011 ± 0.0088 |
| GGGTGACAGG | 0.978 ± 0.017 |
| GGGTGAGCTT | 1.01 ± 0.029 |
| GGGTGATTGG | 0.993 ± 0.018 |
| GGGTGCACGG | 1.01 ± 0.021 |
| GGGTGCCCTA | 0.986 ± 0.051 |
| GGGTGCGCTG | 1.03 ± 0.014 |
| GGGTGGAAGT | 0.981 ± 0.023 |
| GGGTGGATGG | 0.985 ± 0.024 |
| GGGTGGCCGT | 0.961 ± 0.029 |
| GGGTGGGAAT | 1.01 ± 0.043 |

| Sequence | switch fluorescence ratio |
| --- | --- |
| GGGTGGGACG | 1.23 ± 0.16 |
| GGGTGGGGAC | 0.975 ± 0.015 |
| GGGTGGGTTG | 1 ± 0.039 |
| GGGTGGGTTT | 1 ± 0.018 |
| GGGTGGTGGC | 0.964 ± 0.082 |
| GGGTGGTGTT | 1.01 ± 0.021 |
| GGGTGGTTGC | 0.99544 ± 4.2e-05 |
| GGGTGTACTG | 1 ± 0.0089 |
| GGGTGTAGAG | 1.05 ± 0.078 |
| GGGTGTGCCA | 1 ± 0.027 |
| GGGTGTGTTT | 0.985 ± 0.018 |
| GGGTGTTAGC | 1.02 ± 0.046 |
| GGGTGTTCTT | 0.997 ± 0.034 |
| GGGTGTTGAC | 0.993 ± 0.018 |
| GGGTTAACCT | 1.06 ± 0.075 |
| GGGTTAAGCT | 0.989 ± 0.029 |
| GGGTTAAGGA | 0.989 ± 0.036 |
| GGGTTAAGTC | 0.983 ± 0.028 |
| GGGTTAATGC | 1.03 ± 0.047 |
| GGGTTACGAT | 0.994 ± 0.021 |
| GGGTTAGAAG | 0.9797 ± 0.008 |
| GGGTTAGACT | 1.07 ± 0.086 |
| GGGTTAGCCT | 0.999 ± 0.011 |
| GGGTTAGGTA | 0.96 ± 0.053 |
| GGGTTATACG | 1.04 ± 0.031 |

| Sequence | switch fluorescence ratio |
| --- | --- |
| GGGTTATCCT | 1.07 ± 0.047 |
| GGGTTATGGA | 0.971 ± 0.021 |
| GGGTTATTCT | 1.01 ± 0.049 |
| GGGTTCACGG | 1 ± 0.014 |
| GGGTTCCGTG | 1.01 ± 0.024 |
| GGGTTCGGGG | 1 ± 0.056 |
| GGGTTCTGTA | 0.985 ± 0.03 |
| GGGTTCTTAT | 0.992 ± 0.027 |
| GGGTTGAAAA | 0.999 ± 0.039 |
| GGGTTGAATG | 0.978 ± 0.014 |
| GGGTTGACTT | 1.015 ± 0.0018 |
| GGGTTGAGAG | 0.985 ± 0.026 |
| GGGTTGATTA | 0.9898 ± 0.0084 |
| GGGTTGCAGC | 0.992 ± 0.032 |
| GGGTTGCCGA | 1.09 ± 0.19 |
| GGGTTGGAAA | 0.989 ± 0.03 |
| GGGTTGGAGG | 0.995 ± 0.021 |
| GGGTTGTGTA | 1 ± 0.014 |
| GGGTTGTGTT | 0.978 ± 0.013 |
| GGGTTTACTA | 0.9552 ± 0.0018 |
| GGGTTTATAA | 0.987 ± 0.023 |
| GGGTTTATAT | 0.997 ± 0.022 |
| GGGTTTATTT | 0.982 ± 0.014 |
| GGGTTTCAAT | 0.9372 ± 0.0067 |
| GGGTTTCAGC | 1 ± 0.053 |

| Sequence | switch fluorescence ratio |
| --- | --- |
| GGGTTTGAT | 1.03 ± 0.025 |
| GGGTTTGATG | 0.984 ± 0.035 |
| GGGTTTGGGA | 0.9899 ± 0.0088 |
| GGGTTTGGTG | 0.987 ± 0.02 |
| GGGTTTTGAA | 0.984 ± 0.021 |
| GGGTTTTGG | 0.998 ± 0.017 |
| GGGTTTTGGT | 0.978 ± 0.022 |
| GGGTTTTTGA | 1.02 ± 0.024 |
| GGGTTTTTTG | 1 ± 0.031 |
| GGTAAAAGGT | 1.02 ± 0.051 |
| GGTAAAATTT | 1 ± 0.03 |
| GGTAAAGACG | 0.992 ± 0.013 |
| GGTAAAGTTG | 1.07 ± 0.098 |
| GGTAAATATG | 1 ± 0.019 |
| GGTAAATATT | 0.9981 ± 0.0046 |
| GGTAACCGGG | 1.019 ± 0.0016 |
| GGTAACTTTG | 0.989 ± 0.031 |
| GGTAATTGGG | 1.19 ± 0.27 |
| GGTAATTTTT | 1.01 ± 0.034 |
| GGTACCAGTT | 1.01 ± 0.012 |
| GGTACCATTG | 0.991 ± 0.03 |
| GGTACCCTGG | 1.03 ± 0.014 |
| GGTACTATTT | 1 ± 0.026 |
| GGTACTCGGG | 0.961 ± 0.013 |
| GGTACTCGTT | 0.991 ± 0.016 |
